Among the data in patent EP1418184A1 are IFN-gamma secretion of preactivated T cells (ELISA, 48 h), activity against natural IL-12 values, retold here.

For the assay, the target named is IL-12 receptor on activated peripheral blood lymphocytes (human) (UniProt P42701). Kind of assay: cell-based or functional assay.

HRS3-scFv-hi-IL-12 fusion protein displayed an IFN-gamma secretion of preactivated T cells (ELISA, 48 h), activity against natural IL-12 at equimolar amounts (times lower than IL-12) of 5 to 10.
